The values that follow come from patent publication US12662540B2, “Compositions and methods for inhibition of MICA/B shedding” (DANA-FARBER CANCER INSTITUTE, INC., priority 2017, dated 2026).

For data set [1], the system named is B16F10-MICA cells. The data set can be described thus: Mouse NK cell transfer and B16F10-MICA metastases in Rag2−/− Il2rg−/− mice. In kind it is in vivo. Here is the method:
NK cell adoptive transfer was done as described previously (25). Briefly, NK cells from mice of indicated genotypes were isolated from the spleen, enriched by negative selection, and sorted to achieve an NK cell purity of ˜99%. Subsequently, 2×10^5 NK cells were injected intravenously into Rag2^−/− IL2rg^−/− mice. Three days later, reconstitution was checked in blood samples by flow cytometry, and no differences in NK cell frequency were observed among the NK cell genotypes. Subsequently, 4×10^5 B16F10-MICA cells (with luciferase reporter) were injected intravenously (day 0). On days 1, 2, 7, and 10, mice received 200 μg 7C6-mIgG2b or MPC-11 (isotype control) by intraperitoneal injection. Mice were bled at the indicated time points. Euthanasia by CO2 inhalation was performed on day 14 followed by counting of superficial lung metastases as described above.

Data set [2] deals with RPMI-8226 cell line. The experiment in a line: Proteasome inhibitor combination with MICA/B antibody, multiple myeloma cell lines. In kind it is cell-based, human.

B1: 7C6: monoclonal antibody from mice immunized with recombinant MICA α3 domain; parental mIgG2b; VH SEQ ID NO: 7, VL SEQ ID NO: 8 (antibody)
VH: QIQLVQSGPELKKPGETVKVSCKASGYMFTNYAMNWVKQAPEKGLKWMGWINTHTGDPTYADDFKGRIAFSLETSASTAYLQINNLKNEDTATYFCVRTYGNYAMDYWGQGTSVTVSSAKTTAPSVYPLAPVCGDTTGSSVTLGCLVKGYFPEPVTLTWNSGSLSSGVHTFPAVLQSDLYTLSSSVTVTSS
VL: DIQMTQTTSSLSASLGDRVTISCSASQDISNYLNWYQQKPDGTVKLLIYDTSILHLGVPSRFSGSGSGTDYSLTISNLEPEDIATYYCQQYSKFPRTFGGGTTLEIK
modifications: mAb 7C6 heavy chain amino acid sequence; mAb 7C6 light chain amino acid sequence
On to B1, for which, in data set [1] (day 14), the “lung metastases after transfer of NK cells deficient in either NKG2D (Klrk1) or CD16 (Fcgr3a)” value is “therapeutic effect was maintained (but more variable)”; the “lung metastases after transfer of NK cells lacking both NKG2D and CD16” value was “antibody therapy was ineffective”; the “lung metastases after transfer of WT NK cells” value was “most consistent reduction in the number of lung metastases”. The “serum shed MICA after transfer of NK cells lacking both NKG2D and CD16” value in data set [1] (mouse, in vivo) is “shed MICA was still reduced”. For the same molecule, in data set [2] (1 nM bortezomib, versus PBS+Isotype), the “human NK cell cytotoxicity against RPMI-8226, bortezomib plus antibody” value is recorded as “Human NK cell cytotoxicity is increased”. Moreover, the “surface MICA/B, antibody plus proteasome inhibitor” value in data set [2] (RPMI-8226, 24 hours, 10 mg/ml 7C6) is “expresses higher levels of surface MICA/B”.
